Like-named read-outs stand apart in the source and are kept apart here. Numbered stars: 1 amine (or outer) side, 2 acyl side, 3 side chain; on linkers, the order of the positions; unused ones are H or OH. Square brackets hold non-standard residues; d marks the D form. Side chains are listed from the residue outwards. Ends that are not written are not given here. γGlu = O=C(O)[C@H](CCC(=O)[*:2])N[*:1]; X70 = not defined here; x53 = not defined here; Aib = CC(C)(N)C(=O)O
Key:
Assay in all cases: cell-based or functional assay
[1] = biological target: T1, human GLP-1 receptor (human, UniProt P43220 24-463)
[2] = biological target: T2, human glucagon receptor (human, UniProt P47871 26-477)
T2 sequence (P47871 26-477): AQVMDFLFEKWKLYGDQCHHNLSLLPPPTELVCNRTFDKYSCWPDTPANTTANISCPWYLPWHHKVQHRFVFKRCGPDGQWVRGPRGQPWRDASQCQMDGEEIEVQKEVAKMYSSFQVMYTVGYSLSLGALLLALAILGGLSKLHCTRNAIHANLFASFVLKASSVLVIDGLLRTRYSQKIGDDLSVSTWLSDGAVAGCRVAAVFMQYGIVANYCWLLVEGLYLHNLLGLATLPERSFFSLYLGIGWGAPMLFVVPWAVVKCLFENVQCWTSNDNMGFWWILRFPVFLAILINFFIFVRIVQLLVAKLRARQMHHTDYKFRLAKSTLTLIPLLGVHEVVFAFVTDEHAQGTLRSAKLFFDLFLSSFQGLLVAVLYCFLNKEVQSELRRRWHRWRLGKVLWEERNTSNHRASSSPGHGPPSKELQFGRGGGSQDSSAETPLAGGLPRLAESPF

[3] = biological target: T1, human GLP-1 receptor; remark: listed apart in the source
[4] = biological target: T2, human glucagon receptor; remark: listed apart in the source

Binder	EC50 hGLP-1R (cAMP) [1] [pM]	EC50 hGlucagon-R (cAMP) [2] [pM]	EC50 hGLP-1R (cAMP) [3] [pM]	EC50 hGlucagon-R (cAMP) [4] [pM]
H[Aib]QGTFTSDLSKQK([γGlu-X70])DEEAARLFIEWLKAGGPSSGAPPPS-NH2 (reading uncertain) [SEQ ID NO: 216]	4.7	19.5	4.7	19.5
HXQGTFTSDLSKQKDSRRAQDFIEWLKAGGPSSGAPPPS (dSer at 2; K(γE-x53) at 14; C-terminal NH2) [SEQ ID NO: 74]	4.2	1.3	4.2	1.3
HXQGTFTSDLSKQKESRRAQDFIEWLKAGGPSSGAPPPS (dSer at 2; K(γE-x53) at 14; C-terminal NH2) [SEQ ID NO: 4]	5	4	5	4
HXQGTFTSDLSKQMESRRAXDFIEWLKAGGPSSGAPPPS (dSer at 2; Aib at 20; C-terminal NH2) [SEQ ID NO: 190]	21.3	1560		
HXQGTFTSDLSKQKDSRRAQDFIEWLKRGGPSSGAPPPS (dSer at 2; K(γE-x53) at 14; C-terminal NH2) [SEQ ID NO: 125]	31.4	6.9	31.4	6.9
HXQGTFTSDLSKQMDSRRAQDFIEWLKXGGPSSGAPPPS (dSer at 2; Aib at 28; C-terminal NH2) [SEQ ID NO: 187]	152	195		
HXQGTFTSDLSKQKESRRAXDFIEWLKAGGPSSGAPPPS (dSer at 2; K(γE-x53) at 14; Aib at 20; C-terminal NH2) [SEQ ID NO: 75]	11.1	12.5	11.1	12.5
HXQGTFTSDLSKQMDSRRAQDFIEWLKAGGPSSGAPPPS (dSer at 2; C-terminal NH2) [SEQ ID NO: 188]	89.6	186		
HXQGTFTSDLSKQKDSRRAQDFIEWLKKGGPSSGAPPPS (dSer at 2; K(γE-x53) at 14; C-terminal NH2) [SEQ ID NO: 84]	8.1	4.3	8.1	4.3
HXQGTFTSDLSKQKDSRRAQDFIEWLKXGGPSSGAPPPS (dSer at 2; K(γE-x53) at 14; Aib at 28; C-terminal NH2) [SEQ ID NO: 78]	17.8	1.6	17.8	1.6
HXQGTFTSDLSKQMESKAAQDFIEWLKAGGPSSGAPPPS (dSer at 2; C-terminal NH2) [SEQ ID NO: 189]	5.6	1680		
H[Aib]QGTFTSDLSKQK([γGlu-x53])DSRRAQDFIEWLKNGGPSSGAPPPS-NH2 (reading uncertain) [SEQ ID NO: 115]	2.4	1.9	2.4	1.9
H[Aib]QGTFTSDLSKQK([γGlu-X70])EEEAARLFIEWLKAGGPSSGAPPPS-NH2 (reading uncertain) [SEQ ID NO: 215]	5.3	42.6	5.3	42.6
HXQGTFTSDLSKQLDEEAARLFIEWLKAGGPSSGAPPPS (Aib at 2; C-terminal NH2) [SEQ ID NO: 224]	1.3	2930		
HXQGTFTSDLSKQLEEEAARLFIEWLKAGGPSSGAPPPS (Aib at 2; C-terminal NH2) [SEQ ID NO: 225]	0.7	2870		
